Assays:
[1] = target: T1, YVAD-AMC (not fully specified)
T1 chain: YVAD

[2] = target: T2, truncated Mch4-M134
T2 chain: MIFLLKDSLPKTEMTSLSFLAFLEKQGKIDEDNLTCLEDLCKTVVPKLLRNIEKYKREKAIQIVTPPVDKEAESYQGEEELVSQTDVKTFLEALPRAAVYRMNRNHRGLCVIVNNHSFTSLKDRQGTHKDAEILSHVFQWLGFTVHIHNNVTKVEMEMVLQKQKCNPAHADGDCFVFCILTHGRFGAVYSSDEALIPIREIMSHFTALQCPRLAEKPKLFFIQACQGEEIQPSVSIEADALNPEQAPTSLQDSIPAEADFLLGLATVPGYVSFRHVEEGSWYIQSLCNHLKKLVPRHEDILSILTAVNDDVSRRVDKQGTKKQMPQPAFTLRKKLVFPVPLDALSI

[3] = target: T3, DEVD-AMC (not fully specified)
T3 chain: DEVD

[4] = target: T4, proMch4 (35S-labeled wild type Mch4)
T4 chain: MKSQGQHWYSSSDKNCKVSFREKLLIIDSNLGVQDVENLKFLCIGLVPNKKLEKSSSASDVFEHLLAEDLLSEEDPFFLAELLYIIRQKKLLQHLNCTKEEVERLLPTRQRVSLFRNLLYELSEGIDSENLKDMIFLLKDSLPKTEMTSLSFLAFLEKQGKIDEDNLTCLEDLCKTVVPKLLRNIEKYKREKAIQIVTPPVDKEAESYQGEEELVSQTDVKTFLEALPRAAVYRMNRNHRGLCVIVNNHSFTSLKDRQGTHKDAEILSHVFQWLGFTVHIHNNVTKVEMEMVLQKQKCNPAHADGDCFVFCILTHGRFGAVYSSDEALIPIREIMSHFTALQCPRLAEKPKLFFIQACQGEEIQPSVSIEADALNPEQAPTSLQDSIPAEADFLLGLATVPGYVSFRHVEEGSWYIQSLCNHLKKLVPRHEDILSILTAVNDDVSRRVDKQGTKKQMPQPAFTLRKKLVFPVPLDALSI

B1: bacterially expressed recombinant Mch4 (GST-Mch4 fusion protein) (protein)
chain: IQIVTPPVDKEAESYQGEEELVSQTDVKTFLEALPRAAVYRMNRNHRGLCVIVNNHSFTSLKDRQGTHKDAEILSHVFQWLGFTVHIHNNVTKVEMEMVLQKQKCNPAHADGDCFVFCILTHGRFGAVYSSDEALIPIREIMSHFTALQCPRLAEKPKLFFIQACQGEEIQPSVSIEADALNPEQAPTSLQDSIPAEADFLLGLATVPGYVSFRHVEEGSWYIQSLCNHLKKLVPRHEDILSILTAVNDDVSRRVDKQGTKKQMPQPAFTLRKKLVFPVPLDALSI
Q: B1 was tested. Which “Km (YVAD-AMC)” value [1] did it give?
A: 150 µM

Q: What about the “cleavage of 35S-labeled proenzyme, SDS-PAGE and autoradiography” value (“cleavage of 35S-labeled proenzyme” below) [2] of the same protein?
A: Although Mch4 was able to cleave proMch4, its activity towards its proenzyme was significantly lower than that towards proCPP32 and proMch3 (FIG. 5B, lane 7)

Q: And the “Km (DEVD-AMC)” value [3]?
A: 130 µM

Q: What about the Vmax/Km [3] of the same protein?
A: Vmax/KmMch4=18

B2: recombinant CPP32 (protein)
chain: SGISLDNSYKMDYPEMGLCIIINNKNFHKSTGMTSRSGTDVDAANLRETFRNLKYEVRNKNDLTREEIVELMRDVSKEDHSKRSSFVCVLLSHGEEGIIFGTNGPVDLKKITNFFRGDRCRSLTGKPKLFIIQACRGTELDCGIETDSGVDDDMACHKIPVEADFLYAYSTAPGYYSWRNSKDGSWFIQSLCAMLKQYADKLEFMHILTRVNRKVATEFESFSFDATFHAKKQIPCIVSMLTKELYFYH
Q: With B2 as the protein, how does the “cleavage of 35S-labeled proenzyme” value [4] read?
A: there was no significant cleavage of proMch4 when incubated with recombinant CPP32 or Mch3 enzymes

B3: recombinant Mch3 (protein)
chain: AKPDRSSFVPSLFSKKKKNVTMRSIKTTRDRVPTYQYNMNFEKLGKCIIINNKNFDKVTGMGVRNGTDKDAEALFKCFRSLGFDVIVYNDCSCAKMQDLLKKASEEDHTNAACFACILLSHGEENVIYGKDGVTPIKDLTAHFRGDRCKTLLEKPKLFFIQACRGTELDDGIQADSGPINDTDANPRYKIPVEADFLFAYSTVPGYYSWRSPGRGSWFVQALCSILEEHGKDLEIMQILTRVNDRVARHFESQSDDPHFHEKKQIPCVVSMLTKELYFSQ
Q: For B3, which “cleavage of 35S-labeled proenzyme” value [4] is on record?
A: there was no significant cleavage of proMch4 when incubated with recombinant CPP32 or Mch3 enzymes

B4: ICE (protein)
chain: NPAMPTSSGSEGNVKLCSLEEAQRIWKQKSAEIYPIMDKSSRTRLALIICNEEFDSIPRRTGAEVDITGMTMLLQNLGYSVDVKKNLTASDMTTELEAFAHRPEHKTSDSTFLVFMSHGIREGICGKKHSEQVPDILQLNAIFNMLNTKNCPSLKDKPKVIIIQACRGDSPGVVWFKDSVGVSGNLSLPTTEEFEDDAIKKAHIEKDFIAFCSSTPDNVSWRHPTMGSVFIGRLIEHMQEYACSCDVEEIFRKVRFSFEQPDGRAQMPTTERVTLTRCFYLFPGH
Q: For B4, which cleavage of proenzyme [4] is on record?
A: none of these enzymes were able to efficiently process proMch4

B5: TX (protein)
chain: QISPNKKAHPNMEAGPPESGESTDALKLCPHEEFLRLCKERAEEIYPIKERNNRTRLALIICNTEFDHLPPRNGADFDITGMKELLEGLDYSVDVEENLTARDMESALRAFATRPEHKSSDSTFLVLMSHGILEGICGTVHDEKKPDVLLYDTIFQIFNNRNCLSLKDKPKVIIVQACRGANRGELWVRDSPASLEVASSQSSENLEEDAVYKTHVEKDFIAFCSSTPHNVSWRDSTMGSIFITQLITCFQKYSWCCHLEEVFRKVQQSFETPRAKAQMPTIERLSMTRYFYLFPGN
Q: For B5, which cleavage of proenzyme [4] is on record?
A: none of these enzymes were able to efficiently process proMch4

B6: Mch2 (protein)
chain: AFYKREMFDPAEKYKMDHRRRGIALIFNHERFFWHLTLPERRGTCADRDNLTRRFSDLGFEVKCFNDLKAEELLLKIHEVSTVSHADADCFVCVFLSHGEGNHIYAYDAKIEIQTLTGLFKGDKCHSLVGKPKIFIIQACRGNQHDVPVIPLDVVDNQTEKLDTNITEVDAASVYTLPAGADFLMCYSVAEGYYSHRETVNGSWYIQDLCEMLGKYGSSLEFTELLTLVNRKVSQRRVDFCKDPSAIGKKQVPCFASMLTKKLHFFPKSN
Q: For B6, which cleavage of proenzyme [4] is on record?
A: none of these enzymes were able to efficiently process proMch4
